Test results: article PMC9127447

Target: His-tagged dynamin 2b (dynamin 2-WT, baculovirus) (rat)
Test: not stated; polymerization of recombinant (baculovirus) dynamin 2 with or without Bis-T-23; method in Supplementary Figures S2E, F

B1: His-tagged dynamin 2b (dynamin 2-WT, baculovirus) (enzyme)
chain: MGNRGMEELIPLVNKLQDAFSSIGQSCHLDLPQIAVVGGQSAGKSSVLENFVGRDFLPRGSGIVTRRPLILQLIFSKTEYAEFLHCKSKKFTDFDEVRQEIEAETDRVTGTNKGISPVPINLRVYSPHVLNLTLIDLPGITKVPVGDQPPDIEYQIKDMILQFISRESSLILAVTPANMDLANSDALKLAKEVDPQGLRTIGVITKLDLMDEGTDARDVLENKLLPLRRGYIGVVNRSQKDIEGRKDIRAALAAERKFFLSHPAYRHMADRMGTPHLQKTLNQQLTNHIRESLPTLRSKLQSQLLSLEKEVEEYKNFRPDDPTRKTKALLQMVQQFGVDFEKRIEGSGDQVDTLELSGGARINRIFHERFPFELVKMEFDEKDLRREISYAIKNIHGVRTGLFTPDMAFEAIVKKQLVKLKEPSLKCVDLVVSELATVIKKCAEKLSSYPRLREETERIVTTYIREREGRTKDQILLLIDIEQSYINTNHEDFIGFANAQQRSTQLNKKRAIPNQGEILVIRRGWLTINNISLMKGGSKEYWFVLTAESLSWYKDEEEKEKKYMLPLDNLKIRDVEKGFMSNKHVFAIFNTEQRNVYKDLRQIELACDSQEDVDSWKASFLRAGVYPEKDQAENEDGAQENTFSMDPQLERQVETIRNLVDSYVAIINKSIRDLMPKTIMHLMINNTKAFIHHELLAYLYSSADQSSLMEESAEQAQRRDDMLRMYHALKEALNIIGDISTSTVSTPVPPPVDDTWLQNTSSHSPTPQRRPVSSVHPPGRPPAVRGPTPGPPLIPMPVGATSSFSAPPIPSRPGPQNVFANNDPFSAPPQIPSRPARIPPGIPPGVPSRRAPAAPSRPTIIRPAEPSLLD
modifications: not checked
B1 was tested, and the fold increase of polymerization with Bis-T-23 against without Bis-T-23 was 30 times.
